Source: patent publication US20090275047A1 (published 2009)

Molecular target: the molecule itself
Test: X-ray crystal structure; crystal lattice contact between symmetry-related molecules

B1: human soluble adenylate cyclase catalytic domain, construct solAC-2056 (M1-V469 with non-cleavable C-terminal His6 tag) (enzyme)
chain: MNTPKEEFQDWPIVRIAAHLPDLIVYGHFSPERPFMDYFDGVLMFVDISGFTAMTEKFSSAMYMDRGAEQLVEILNYHISAIVEKVLIFGGDILKFAGDALLALWRVERKQLKNIITVVIKCSLEIHGLFETQEWEEGLDIRVKIGLAAGHISMLVFGDETHSHFLVIGQAVDDVRLAQNMAQMNDVILSPNCWQLCDRSMIEIESVPDQRAVKVNFLKPPPNFNFDEFFTKCTTFMHYYPSGEHKNLLRLACTLKPDPELEMSLQKYVMESILKQIDNKQLQGYLSELRPVTIVFVNLMFEDQDKAEEIGPAIQDAYMHITSVLKIFQGQINKVFMFDKGCSFLCVFGFPGEKVPDELTHALECAMDIFDFCSQVHKIQTVSIGVASGIVFCGIVGHTVRHEYTVIGQKVNLAARMMMYYPGIVTCDSVTYNGSNLPAYFFKELPKKVMKGVADSGPLYQYWGRTEKVHHHHHH
modifications: possible acetylation of the N-terminus at Met1 (electron density peak, not modelled)
notes: Expressed in Hi 5 insect cells and crystallised in space group P63; The protein-protein contact recorded is between symmetry-related copies of this molecule in the crystal; also called construct 2056; solAC catalytic domain
  binding result: binds
